Target: Tpp49Aa1 pesticidal protein from Lysinibacillus sphaericus (Lysinibacillus sphaericus)
Assay: crystal structure

Substance: Tpp49Aa1 pesticidal protein from Lysinibacillus sphaericus (natural protein)
- stoichiometry N: 2

Source: article doi:10.1101/2022.01.14.476343
